From article PMC12096953, “Insights into heme degradation and hydrogen peroxide-induced dimerization of human neuroglobin” (Bioscience Reports, 2025) come the findings set out here.

Series [1] deals with the molecule itself. Kind of series: SEC; HPLC-SEC of wild-type hNgb, 1 µg/µL, 15-fold H2O2, 20 h at 4°C, with or without the spin trap MNP (10 µg/µL).
Series [2] deals with the molecule itself. Briefly: SEC-MALS; HPLC-SEC-PDA-MALS, Superdex 200 10/300 GL, 1x PBS pH 7.4, 25°C, detection at 412 nm; 1 μg/μL protein incubated 20 h at 4°C with different molar excess of H2O2 before the run; monomer to covalent dimer. On the technique in general: SEC sorts molecules by how far they enter the pores of the column.

B1: wild-type human neuroglobin (natural protein, UniProt Q9NPG2 1-151, looked up)
chain: MERPEPELIRQSWRAVSRSPLEHGTVLFARLFALEPDLLPLFQYNCRQFSSPEDCLSSPEFLDHIRKVMLVIDAAVTNVEDLSSLEEYLASLGRKHRAVGVKLSSFSTVGESLLYMLEKCLGPAFTPATRAAWSQLYGAVVQAMSRGWDGE
notes: human neuroglobin (hNgb), described as a protein of 151 amino acids; Heme b protein; The dimers seen arise after H2O2 treatment and are held by covalent Tyr-Tyr links; also called hNgb; wild-type hNgb
As a reminder, the stoichiometry N is a count of units in the complex or per binding partner. B1: in series [1], the “percent dimerization (15-fold H2O2, with MNP)” value was determined as 8.1% and the “percent dimerization (15-fold H2O2, without MNP)” value stood at 18.7%. Also, the “stoichiometry N” value in series [2] is 2.

B2: human neuroglobin Y44F variant (natural protein, UniProt Q9NPG2 1-151, looked up)
chain: MERPEPELIRQSWRAVSRSPLEHGTVLFARLFALEPDLLPLFQFNCRQFSSPEDCLSSPEFLDHIRKVMLVIDAAVTNVEDLSSLEEYLASLGRKHRAVGVKLSSFSTVGESLLYMLEKCLGPAFTPATRAAWSQLYGAVVQAMSRGWDGE
notes: human neuroglobin (hNgb) with Y44F
As to B2, the “stoichiometry N” value in series [2] was determined as 2.

B3: human neuroglobin Y44A variant (natural protein, UniProt Q9NPG2 1-151, looked up)
chain: MERPEPELIRQSWRAVSRSPLEHGTVLFARLFALEPDLLPLFQANCRQFSSPEDCLSSPEFLDHIRKVMLVIDAAVTNVEDLSSLEEYLASLGRKHRAVGVKLSSFSTVGESLLYMLEKCLGPAFTPATRAAWSQLYGAVVQAMSRGWDGE
notes: human neuroglobin (hNgb) with Y44A; also called hNgb Y44A
With B3, the “stoichiometry N” value in series [2] turned out to be 2.

B4: human neuroglobin Y44AC46AC55A variant (natural protein, UniProt Q9NPG2 1-151, looked up)
chain: MERPEPELIRQSWRAVSRSPLEHGTVLFARLFALEPDLLPLFQANARQFSSPEDALSSPEFLDHIRKVMLVIDAAVTNVEDLSSLEEYLASLGRKHRAVGVKLSSFSTVGESLLYMLEKCLGPAFTPATRAAWSQLYGAVVQAMSRGWDGE
notes: human neuroglobin (hNgb) with Y44A, C46A and C55A; also called triple variant
In the case of B4, in series [2], the “stoichiometry N” value was determined as 2.
